In publication doi:10.1101/835280, “Bayesian Modeling Reveals Ultrasensitivity Underlying Metabolic Compensation in the Cyanobacterial Circadian Clock” (bioRxiv, 2019):

T1: KaiA (Synechococcus elongatus PCC 7942, UniProt Q79PF6 1-284)
T1 construct: KaiA, circadian clock protein of Synechococcus elongatus PCC 7942; source: expressed and purified as previously described (Phong et al., 2013), anion exchange on HiTrap Q
T1 sequence (looked up): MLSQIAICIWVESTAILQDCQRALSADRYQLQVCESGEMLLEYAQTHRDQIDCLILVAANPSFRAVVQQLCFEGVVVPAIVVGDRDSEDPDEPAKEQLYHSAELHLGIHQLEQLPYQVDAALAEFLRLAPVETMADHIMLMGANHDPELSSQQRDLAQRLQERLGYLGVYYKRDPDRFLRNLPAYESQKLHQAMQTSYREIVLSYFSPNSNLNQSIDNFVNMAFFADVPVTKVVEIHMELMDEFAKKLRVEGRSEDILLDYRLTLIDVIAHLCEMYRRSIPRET


What was measured:
[1] = target: the molecule itself; assay: SEC; size-exclusion chromatography on a Superdex 75 16/60 prep grade column, last step of the purification of the 15N-labelled KaiA domains
[2] = target: T1, KaiA; assay: co-IP; immunoprecipitation of KaiB-FLAG from an in vitro clock reaction of purified KaiA, KaiB-FLAG and KaiC (20 mM Tris-HCl pH 8, 150 mM NaCl, 5 mM MgCl2, 0.5 mM EDTA, 10% glycerol), time course; KaiA left in the supernatant read by SDS-PAGE (SYPRO Ruby) against 1.5 uM GFP as internal standard; conditions: both partners purified

Row | binding result [2] | Binder | stoichiometry N [1]
1 |  | C-terminal domain of KaiA (residues 181-284) (domain or fragment, Synechococcus elongatus PCC 7942, UniProt Q79PF6 181-284, looked up, KaiA, Synechococcus elongatus PCC 7942, C-terminal domain, residues 181-284; U-[15N] labelled, grown in deuterated water; also called C-terminal KaiA; C-terminal fragment of KaiA; source: E. coli BL21(DE3), M9 medium with 15N-NH4Cl in 98% D2O, purified (Ni-NTA, SEC on Superdex 75)) NLPAYESQKLHQAMQTSYREIVLSYFSPNSNLNQSIDNFVNMAFFADVPVTKVVEIHMELMDEFAKKLRVEGRSEDILLDYRLTLIDVIAHLCEMYRRSIPRET | 2
2 | binds | KaiB-FLAG (natural protein, Synechococcus elongatus PCC 7942, UniProt Q79PF5 1-102, looked up, KaiB, circadian clock protein of Synechococcus elongatus PCC 7942; also called FLAG-tagged KaiB; source: expressed and purified as previously described (Phong et al., 2013), anion exchange on HiTrap Q) MSPRKTYILKLYVAGNTPNSVRALKTLKNILEVEFQGVYALKVIDVLKNPQLAEEDKILATPTLAKVLPLPVRRIIGDLSDREKVLIGLDLLYGELQDSDDF | 
